Reference: publication PMC2637360 (Structure (London, England : 1993), 2008)

Target: the molecule itself
Assay: crystal structure

B1: N141A HincII (enzyme)
chain: MSFIKPIYQDINSILIGQKVKRPKSGTLSGHAAGEPFEKLVYKFLKENLSDLTFKQYEYLNDLFMKNPAIIGHEARYKLFNSPTLLFLLSRGKAATENWSIENLFEEKQNDTADILLVKDQFYELLDVKRRNISKSAQAPAIISAYKLAQTCAKMIDNKEFDLFDINYLEVDSELNGEDLVCVSTSFAELFKSEPSELYINWAAAMQIQFHVRDLDQGFNGTREEWAKSYLKHFVTQAEQRAISMIDKFVKPFKKYIL
stoichiometry N: 2
